Experimental data reported in the supplement of paper PMC9233669.
Variants at the floor of the assay were thinned out.

What was measured:
biotinyl-Ile-oxazolone = assay: self-aminoacylation, catalytic enhancement (BIO) (fold over background); higher = more active; k-Seq, kA / k0A0; sequences stand for … in GGGAAUGGAUCCACAUCUACGAAUUC…UUCACUGCAGACUUGACGAAGCUG
In short: (§1)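 Mutagenized RNA pools (0.43 μM; 21-nt variable region) were treated with 2–1250 μM of each biotinyl-aminoacyl-oxazolone. Conditions were 50 μL HEPES/NaCl/KCl/MgCl2/CaCl2 buffer, 5% acetonitrile, pH 6.9–7.0, room temperature, 90 minutes. Catalytic enhancement, the median kA relative to the uncatalyzed rate, was derived from streptavidin capture, qPCR and Illumina sequencing.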

biotinyl-Trp-oxazolone = assay: self-aminoacylation, catalytic enhancement (BWO) (fold over background); higher = more active; k-Seq, kA / k0A0; sequences stand for … in GGGAAUGGAUCCACAUCUACGAAUUC…UUCACUGCAGACUUGACGAAGCUG
In short: as §1

biotinyl-Leu-oxazolone = assay: self-aminoacylation, catalytic enhancement (BLO) (fold over background); higher = more active; k-Seq, kA / k0A0; sequences stand for … in GGGAAUGGAUCCACAUCUACGAAUUC…UUCACUGCAGACUUGACGAAGCUG
In short: as §1

biotinyl-Phe-oxazolone = assay: self-aminoacylation, catalytic enhancement (BFO) (fold over background); higher = more active; k-Seq, kA / k0A0; sequences stand for … in GGGAAUGGAUCCACAUCUACGAAUUC…UUCACUGCAGACUUGACGAAGCUG
In short: as §1

biotinyl-Val-oxazolone = assay: self-aminoacylation, catalytic enhancement (BVO) (fold over background); higher = more active; k-Seq, kA / k0A0; sequences stand for … in GGGAAUGGAUCCACAUCUACGAAUUC…UUCACUGCAGACUUGACGAAGCUG
In short: as §1

biotinyl-Met-oxazolone = assay: self-aminoacylation, catalytic enhancement (BMO) (fold over background); higher = more active; k-Seq, kA / k0A0; sequences stand for … in GGGAAUGGAUCCACAUCUACGAAUUC…UUCACUGCAGACUUGACGAAGCUG
In short: as §1

Row | Sequence | self-aminoacylation (biotinyl-Ile-oxazolone) | self-aminoacylation (biotinyl-Trp-oxazolone) | self-aminoacylation (biotinyl-Leu-oxazolone) | self-aminoacylation (biotinyl-Phe-oxazolone) | self-aminoacylation (biotinyl-Val-oxazolone) | self-aminoacylation (biotinyl-Met-oxazolone)
1 | UAGUUUGCUAAUCGUCGCAAG [Fam3.1 aminoacylation ribozyme variant] | 1.62 | 1.59 | 1.11 | 1.65 | 1.31 | 1.51
2 | AUUGACCUGGGUCAUCGGGUG [Fam2.2 aminoacylation ribozyme variant] | 12.2 | 24.1 | 29.6 | 107 | 13.5 | 25.9
3 | AUUACCCUGGGCAUCGAGUUA [Fam2.1 aminoacylation ribozyme variant] | 0.909 | 0.678 | 0.805 | 1.15 | 1.11 | 0.642
4 | CUACUCCAAACAAUCGGUCUG [Fam1A.1 aminoacylation ribozyme variant] | 0.801 | 1.95 | 0.731 | 3.09 | 0.825 | 0.786
5 | CCACUCCUCAAGCAAUCGGUC [Fam1B.1 aminoacylation ribozyme variant] | 1.07 | 1.26 | 0.845 | 1.26 | 1.23 | 0.986
6 | AUUCACCUAGGUCCUCUGGUG [Fam2.2 aminoacylation ribozyme variant] | 2.57 | 4.56 | 5.9 | 31.1 | 2.58 | 4.3
7 | AAUUUUGCUAAUAGUCGCAAC [Fam3.1 aminoacylation ribozyme variant] | 1.64 | 1.95 | 1.44 | 2.23 | 1.8 | 1.41
8 | AUUCACCCAGGUCUUCGGGUG [Fam2.2 aminoacylation ribozyme variant] | 3.28 | 5.13 | 5.78 | 35 | 3.84 | 5.3
9 | UUUACUCUGGUCAUCGAGUGA [Fam2.1 aminoacylation ribozyme variant] | 3.99 | 6.74 | 5.43 | 7.42 | 3.58 | 5.53
10 | AACUUUGCUAAUAGCCGCAAG [Fam3.1 aminoacylation ribozyme variant] | 2.25 | 2.14 | 2.23 | 2.77 | 1.93 | 2.28
11 | CCACACUUCAAGCAAUUGGCC [Fam1B.1 aminoacylation ribozyme variant] | 2.77 | 3.51 | 3.18 | 2.34 | 4.13 | 2.58
12 | AUUCCCCUAGGUAAUCGGGUG [Fam2.2 aminoacylation ribozyme variant] | 7.5 | 11.6 | 16.3 | 90.8 | 6.58 | 10.7
13 | AUGACCCCGGUCAUCGAGUGA [Fam2.1 aminoacylation ribozyme variant] | 3.51 | 6.78 | 8.55 | 39.9 | 3.3 | 6.75
14 | CUACUUCCAACAAUCGGGCUG [Fam1A.1 aminoacylation ribozyme variant] | 1.59 | 0.982 | 1.28 | 0.889 | 1.27 | 2.11
15 | CAACACUUCAAGCAAUUGGUC [Fam1B.1 aminoacylation ribozyme variant] | 0.98 | 0.958 | 0.775 | 1.42 | 0.904 | 0.866
16 | CUACUUAAAACUAUCGGUCUG [Fam1A.1 aminoacylation ribozyme variant] | 1.11 | 0.746 | 0.97 | 0.83 | 1.06 | 0.922
17 | AAGUUUGCUAAUAGUCACAAG [Fam3.1 aminoacylation ribozyme variant] | 1.47 | 4.08 | 1.21 | 12.3 | 1.35 | 1.45
18 | CUACUUCGAACAAUAGGUCUG [Fam1A.1 aminoacylation ribozyme variant] | 0.547 | 0.421 | 0.461 | 0.503 | 0.745 | 0.471
19 | AUGCACCUAGGUCAGCGGGUG [Fam2.2 aminoacylation ribozyme variant] | 3.27 | 5.27 | 4.65 | 18.1 | 3.02 | 3.65
20 | AAGUUUGGUAAUCGUCGCAAG [Fam3.1 aminoacylation ribozyme variant] | 1.39 | 1.52 | 1.33 | 1.07 | 1.32 | 1.49
21 | CCACACUUCAACCAAGCGGUC [Fam1B.1 aminoacylation ribozyme variant] | 0.95 | 0.613 | 0.761 | 0.838 | 1.08 | 0.914
